Measurements: patent US20230044661A1, “VIABLE TISSSUE FORMS AND METHODS FOR MAKING AND USING SAME” (Musculoskeletal Transplant Foundation, priority 2019, published 2023)

Experiments:
[1] = system: peripheral blood mononuclear cells (PBMCs); test: One-way mixed lymphocyte reaction (MLR); format: cell-based, human; settings: for Proliferated cells (% of all CPD stained), Average: 60 mg tissue, 250K cells, 5 days; for Stimulation Index: vs PBMCs + saline
Procedure: (§1) Cancellous and cortical bone tissue samples were obtained, processed and combined, to produce LyoGraft Bone Grafts. From each donor, cancellous tissue samples comprising cancellous bone were recovered and processed to provide cancellous granules, and cortical bone tissue samples were recovered and processed to provide cortical fibers. Quantities of cancellous granules and cortical fibers derived from the same donor were measured and combined to produce three test samples per donor, each of which contained about 40 wt % cancellous granules and about 60 wt % cortical fibers, the wt % being based on the total weight of the combined cancellous granules and cortical fibers of each sample. The total weights of the test samples (i.e., each comprising both cancellous granules and cortical fibers) ranged from 1.3 g to 1.6 g. The test samples were preserved after contact with protectants in solution, in accordance with the methods described hereinabove. Peripheral blood mononuclear cells (PBMCs) were procured from three unique blood donors in order to test for a one-way and two-war mixed lymphocyte reaction (MLR) assay. In a one-way set up, PBMCs are exposed to a test article, the lyopreserved tissue samples, and PBMC stimulation or lack thereof is assessed. In a two-way set up, mismatched blood donors are exposed to one another, and an ongoing reaction is stimulated. This ongoing reaction is then put in presence of a test article, the lyopreserved tissue samples, and stimulation or inhibition of this ongoing reaction are assessed. […] Two-way MLR testing was performed on three lyopreserved donor lots to assess the inhibitory or stimulatory effects of an ongoing/developing immunogenic reaction between two mismatched blood donors.
• 11. Blood was obtained from three unique donors and PBMCs were isolated. • 12. PBMCs were stained with a tracking dye, CPD-670, and added to 96-well round bottom culture plates for one-way MLR assay. • 12.1 This dye is used to determine whether or not an immune response has been induced. If there is an immune reaction, cells will proliferate in response to a stimulator, in this case lyopreserved tissue, and dilute the CPD-670 stain. The dilution of the stain decreases the fluorescence signal which will be used to measure any differences across test samples compared to the saline negative control and concanavalin A positive control. • 13. Lyopreserved samples are prepared by adding 30 mL of sterile saline USP to smaller units (Donor 1 and 3) or filling 2 oz jar to the top (60 mL) with saline for larger units (Donor 2), incubating for 2 mins, decanting, and tap-drying with sterile gauze. • 14. 60 mg of lyopreserved tissue per donor and 20 uL of saline were added in tripliciate for each PBMC donor in 96 well plates. • 14.1 Saline is used as a negative control. • 15. PBMCs were added to each test group (250K cells) and incubated for 5 days at 37° C. in 5% CO2 in humidifier incubator. • 16. To calculate % proliferation, cells with decreased dye fluorescent signal were compared to the total number of positively stained cells. • 17. Concanavalin A (ConA) was used as a stimulation positive control to ensure that cells (PBMC) were in good condition to proliferate. • 18. Stimulation Index (SI) was calculated as proliferating cell percentage from wells with PBMCs+lyopreserved tissue sample divided by proliferating cell percentage from PBMCs+saline.

[2] = system: mismatched peripheral blood mononuclear cells (PBMCs); test: Two-way mixed lymphocyte reaction (MLR); format: cell-based, human; settings: for Stimulation Index: vs same MLR + saline
Procedure: as §1
• 19. Cells (PBMC) from each of two donors were added to wells of 96-well round bottom culture plates. • 20. Only cells from one of the two donors were stained with tracking dye, CPD-670, considered the responder cells. The other donor cells were left unstained, considered the inducer cells. • 21. Assay was repeated using 3 different combinations of responder/inducer cells. • 22. The amount of proliferating responder cells indicates an immune reaction induced by the mismatched inducer cells and is shown as cells with reduced dye content after six days of co-incubation. • 23. Virtuos samples are prepared by adding 30 mL of sterile saline USP to smaller units (Donor 1 and 3) or filling 2 oz jar to the top (60 mL) with saline for larger units (Donor 2), incubating for 2 mins, decanting, and tap-drying with sterile gauze. • 24. 60 mg of lyopreserved tissue per donor and 20 uL of saline were added in triplicate for each PBMC donor in 96 well plates. • 24.1 Saline is used as a negative control. • 25. PBMCs from two mismatched blood donors were added to each test group (250K cells per blood donor) and incubated for 5 days at 37° C. in 5% CO2 in humidifier incubator. • 26. Concanavalin A (ConA) was used as a stimulation positive control to ensure that cells (PBMC) were in good condition to proliferate. • 27. Stimulation Index (SI) was calculated as proliferating cell percentage from wells with two mismatched donors with lyopreserved tissue divided by proliferating cell percentage from wells with the same mismatched donor cells treated with saline.

[3] = Donor A-CPD + Donor B-Unstained MLR
[4] = Donor B-CPD + Donor C-Unstained MLR
[5] = Donor C-CPD + Donor A-Unstained MLR

With Concanavalin A [ConA] the “Proliferated cells (% of all CPD stained), Average” value ([1]; PBMC Donor A) was 45.2%, the “Stimulation Index” value ([1]; PBMC Donor A) was 28.0 and the “Proliferated cells (% of all CPD stained), Average” value ([1]; PBMC Donor B) was 61.5%. For the same substance, the “Stimulation Index” value ([1]; PBMC Donor B) was 100.3, the “Proliferated cells (% of all CPD stained), Average” value ([1]; PBMC Donor C) was 60.6% and the “Stimulation Index” value ([1]; PBMC Donor C) was 155.4. The “Proliferated cells (% of all CPD stained), Average” value [2, 3] was 57.8%, the “Stimulation Index” value [2, 3] was 8.1 and the “Proliferated cells (% of all CPD stained), Average” value [2, 4] was 39.5%. For the same substance, the “Stimulation Index” value [2, 4] was 5.3, the “Proliferated cells (% of all CPD stained), Average” value [2, 5] was 50.6% and the “Stimulation Index” value [2, 5] was 4.9.
